Assay results reported in patent US20070111259A1 (BIOSITE, published 2007).

T1: biotinylated interleukin 8 (IL8-biotin) (human, UniProt P10145 21-99, reacted with biotin-XX-NHS ester (1 mM); labelled residues not stated)
T1 construct: mature; also called IL-8 labeled with biotin; biotinylated IL-8
T1 sequence: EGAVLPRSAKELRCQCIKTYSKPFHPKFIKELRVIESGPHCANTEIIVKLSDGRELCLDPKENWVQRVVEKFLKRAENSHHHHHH


Experiments:
[1] = biological target: T1, biotinylated interleukin 8 (IL8-biotin); assay: fraction of Fab bound by a large excess of biotin-IL-8, removed on avidin magnetic latex
[2] = biological target: T1, biotinylated interleukin 8 (IL8-biotin); assay: solution equilibrium with 1e-10 M biotin-IL-8, B/F vs B plot, free Fab by sandwich ELISA
Description: The equilibrium binding constants of individual monoclonal antibodies were determined by analysis of the total and free antibody concentrations after a binding equilibrium was established in the presence of biotinylated IL-8 at 10⁻¹⁰ M in a 1% solution of bovine serum albumin buffered at pH 8.0. […] The supernatant solution was removed from the microtiter wells containing the magnetic particles and the antibody concentration was determined. The concentration of total antibody added to the individual wells was determined by quantifying the antibody in a sample that was not mixed with IL-8. […] When determining the concentration of total antibody in an equilibrium mixture, the antibody concentration is the amount of total antibody in the mixture determined from the assay described below multiplied by the immunoreactive fraction. Similarly, when calculating the free antibody in an equilibrium mixture after the removal of IL-8, the non-immunoreactive fraction of antibody is subtracted from the free antibody concentration determined by the assay described below. The bound fraction, B, is determined by subtracting the free immunoreactive antibody concentration in the mixture, F, from the total immunoreactive antibody concentration in the mixture. […]

| Binder | % Immunoreactive Protein [1] [%] | Ka [2] [M⁻¹] |
| --- | --- | --- |
| M1-21 (Fab, also called M1_21H; M1_21L) heavy: QVQLVQSGGGVVQPGKSLRLSCAASGFTFSYYGMHWVRQVPGKGLEWVAAVWYDGSTTYSPDSVKGRFTISRDDSKNTLYLQMSSLRAEDTAVYYCARDRVGLFDYWGQGTLVTVSSASTKGPSVFPLAPSSKSTSGGTAALGCLVKDYFPEPVTVSWNSGALTSGVHTFPAVLQSSGLYSLSSVVTVPSSSLGTQTYICNVNHKPSNTKVDKKAEPKSHHHHHH light: not shown | 67 | 6.6e+10 |
| M1-10 (Fab, also called M1_10H; M1_10L) heavy: QVQLVQSGGGLVHPGGSLRLSCEGSGFIFRNHPIHWVRQAPGKGLEWVSVSGIGGDTYYADSVKGRFSISRDNAKNSLYLQMNSLRAEDMAVYYCAREYYYGSGSYRVDYYYYGMDVWGQGTTVTVSSASTKGPSVFPLAPSSKSTSGGTAALGCLVKDYFPEPVTVSWNSGALTSGVHTFPAVLQSSGLYSLSSVVTVPSSSLGTQTYICNVNHKPSNTKVDKKAEPKSHHHHHH light: not shown | 90 |  |
